Test results published in publication doi:10.1101/2022.01.24.477625 (bioRxiv, 2022).

Target: SARS-CoV-2 spike protein (FL-GCN4-Avi-His, biotinylated) (SARS-CoV-2, Wuhan-Hu-1, UniProt P0DTC2, stabilised, biotin on the Avi tag)
Assay: BLI

B1: CV27 IgG (antibody, V domains shown)
VH: QVQLVESGGGVVQPGRSLRLSCAASGFTFSSYAMHWVRQAPGKGLEWVALISYDGSNKYYADSVKGRFTISRDNSKNTLYLQMNSLRAEDTAVYYCARSFGGSYYYGMDVWGQGTTVTVSS
VL: QSALTQPASVSGSPGQSITISCTGTSSDVGGYNYVSWYQQHPGKAPKLMIYDVSNRPSGVSNRFSGSKSGNTASLTISGLQAEDEADYYCSSYTSSSTPYVFGTGTKVTVL
B1: binds.

B2: CV27 FAb (Fab, V domains shown)
VH: B1 VH
VL: B1 VL
B2: binds.
